Results on seven molecules are retold here after article PMC12204343, “Regulatory Role of Serine59 in the Oligomeric Dynamics and Chaperone Function of αB-Crystallin” (Research Square, 2025).

The target in data set [1] is αB-crystallin (UniProt P02511). Description: SEC-MALS of homo-oligomer mass; TEM. Conditions: reference: wild type; sites S59.
The target of data set [2] is T1, Alcohol dehydrogenase (UniProt P00330 1-348).
T1 sequence (looked up): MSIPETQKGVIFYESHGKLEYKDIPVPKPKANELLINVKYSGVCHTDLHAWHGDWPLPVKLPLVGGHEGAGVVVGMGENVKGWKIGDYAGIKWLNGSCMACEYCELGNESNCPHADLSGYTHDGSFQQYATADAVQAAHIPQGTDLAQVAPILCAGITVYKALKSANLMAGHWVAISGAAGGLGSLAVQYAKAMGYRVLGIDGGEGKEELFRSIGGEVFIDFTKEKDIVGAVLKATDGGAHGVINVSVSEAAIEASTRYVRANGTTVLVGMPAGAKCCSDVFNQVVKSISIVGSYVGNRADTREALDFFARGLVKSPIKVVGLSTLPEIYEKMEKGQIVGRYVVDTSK
In words: cell-based or functional assay.

The target in data set [3] is Lysozyme (UniProt P00698 19-147). Description: cell-based or functional assay.
Lysozyme, sequence (P00698 19-147): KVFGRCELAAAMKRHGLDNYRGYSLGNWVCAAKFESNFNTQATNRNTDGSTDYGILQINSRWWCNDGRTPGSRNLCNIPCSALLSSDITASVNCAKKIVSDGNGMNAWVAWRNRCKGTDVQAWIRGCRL
Data set [4] concerns the target Luciferase (UniProt P08659 1-550 = luciferase). Description: cell-based or functional assay.
Data set [5] concerns the molecule itself. In words: negative-stain transmission electron microscopy; 0.05 mg/mL on glow-discharged carbon grids, 2% uranyl acetate; oligomers of the chaperone protein alone.
Data set [6] concerns the molecule itself. In words: SEC-MALS; HPLC coupled with MALS; proteins (0.15 mg in 0.05 mL) incubated at 37°C for 1 hour before analysis; self-association into oligomers. (In gel filtration, larger molecules generally elute earlier.)

Luciferase, sequence (P08659 whole entry): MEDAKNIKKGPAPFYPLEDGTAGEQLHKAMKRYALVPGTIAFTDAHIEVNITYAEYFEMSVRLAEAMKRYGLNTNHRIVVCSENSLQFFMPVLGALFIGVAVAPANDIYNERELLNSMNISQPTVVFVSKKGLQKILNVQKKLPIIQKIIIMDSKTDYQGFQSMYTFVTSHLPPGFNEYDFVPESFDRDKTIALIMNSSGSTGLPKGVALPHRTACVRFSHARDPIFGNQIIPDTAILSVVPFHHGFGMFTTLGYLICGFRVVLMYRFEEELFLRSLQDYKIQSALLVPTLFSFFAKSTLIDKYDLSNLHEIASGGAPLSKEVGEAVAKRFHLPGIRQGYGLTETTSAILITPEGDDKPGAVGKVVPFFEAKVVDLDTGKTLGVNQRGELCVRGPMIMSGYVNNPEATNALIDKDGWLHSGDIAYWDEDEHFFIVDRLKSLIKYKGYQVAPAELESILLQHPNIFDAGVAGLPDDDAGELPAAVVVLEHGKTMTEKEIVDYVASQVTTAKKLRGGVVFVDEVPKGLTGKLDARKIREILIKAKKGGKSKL

Regarding “αB-crystallin (from UniProt P02511) ΔS59”, the “other: average oligomeric mass” value in data set [1] was “same; reference 579”.
Same read-out and setting: the same measure for “αB-crystallin (from UniProt P02511) S59D”: “weaker; reference 579”.

B1: αB-crystallin with residues 54–61 deleted (natural protein, human, UniProt P02511 1-175, looked up)
chain: MDIAIHHPWIRRPFFPFHSPSRLFDQFFGEHLLESDLFPTSTSLSPFYLRPPSDTGLSEMRLEKDRFSVNLDVKHFSPEELKVKVLGDVIEVHGKHEERQDEHGFISREFHRKYRIPADVDPLTITSSLSSDGVLTVNGPRKQVSGPERTIPITREEKPAVTAAPKK
notes: αB-crystallin, human, with residues 54–61 deleted; also called αB-Δ54–61; αBΔ54–61
For the molecule B1, the “chaperone efficiency against ADH (2.5 μM) aggregation relative to αB-S59D, light scattering at 360 nm, 90 min, PBS + 50 mM EDTA, 37°C” value in data set [2] stood at 1.6 fold. Moreover, in data set [3], the “protection against DTT-induced lysozyme (10 μM) aggregation, 2.5 μM chaperone, PBS, 2 mM DTT, 37°C, 6 hours” value (“protection against DTT-induced lysozyme” below) is above 95%. Also, the “EC50 of suppression of luciferase (0.5 μM) aggregation, light scattering at 360 nm, 90 min, PBS, 37°C” value (from here on “EC50 of suppression of luciferase”) in data set [4] is 1200 nM. Further, the binding result in data set [5] is recorded as “binds”.

B2: αB-crystallin ΔS59 (deletion of Serine 59) (natural protein, human, UniProt P02511 1-175, looked up)
chain: MDIAIHHPWIRRPFFPFHSPSRLFDQFFGEHLLESDLFPTSTSLSPFYLRPPSFLRAPWFDTGLSEMRLEKDRFSVNLDVKHFSPEELKVKVLGDVIEVHGKHEERQDEHGFISREFHRKYRIPADVDPLTITSSLSSDGVLTVNGPRKQVSGPERTIPITREEKPAVTAAPKK
notes: αB-crystallin, human, with Serine 59 deleted; Made by site-directed mutagenesis; also called αB-ΔS59; source: E. coli BL21(DE3)pLysS, purified (Q-Sepharose, Superdex and Superose 6 size exclusion, ammonium sulphate)
For B2, the “EC50 of suppression of ADH (2.5 μM) aggregation, light scattering at 360 nm, 90 min, PBS + 50 mM EDTA, 37°C” value (“EC50 of suppression of ADH” below) in data set [2] came out at 1200 nM. The “protection against DTT-induced lysozyme” value in data set [3] was determined as 60%. The “EC50 of suppression of luciferase” value in data set [4] came to 8300 nM. Also, the binding result in data set [6] is reported as “binds”.

B3: wild-type αB-crystallin (natural protein, human, UniProt P02511 1-175, looked up)
chain: MDIAIHHPWIRRPFFPFHSPSRLFDQFFGEHLLESDLFPTSTSLSPFYLRPPSFLRAPSWFDTGLSEMRLEKDRFSVNLDVKHFSPEELKVKVLGDVIEVHGKHEERQDEHGFISREFHRKYRIPADVDPLTITSSLSSDGVLTVNGPRKQVSGPERTIPITREEKPAVTAAPKK
notes: αB-crystallin, human, wild type; forms large polydisperse oligomers; no tag is mentioned; also called αB-WT; WT-αB; source: E. coli BL21(DE3)pLysS, purified (Q-Sepharose, Superdex and Superose 6 size exclusion, ammonium sulphate)
Consider B3, for which the “EC50 of suppression of ADH” value in data set [2] stood at 1000 nM. Further, the “protection against DTT-induced lysozyme” value in data set [3] is around 52%. For the same molecule, the “EC50 of suppression of luciferase” value in data set [4] stood at 4300 nM. In addition, the binding result in data set [6] is “binds”.

B4: αB-crystallin S59D (phosphomimetic mutant) (natural protein, human, UniProt P02511 1-175, looked up)
chain: MDIAIHHPWIRRPFFPFHSPSRLFDQFFGEHLLESDLFPTSTSLSPFYLRPPSFLRAPDWFDTGLSEMRLEKDRFSVNLDVKHFSPEELKVKVLGDVIEVHGKHEERQDEHGFISREFHRKYRIPADVDPLTITSSLSSDGVLTVNGPRKQVSGPERTIPITREEKPAVTAAPKK
notes: αB-crystallin, human, with the phosphomimetic substitution S59D; Made by site-directed mutagenesis; also called αB-S59D; αBS59D; source: E. coli BL21(DE3)pLysS, purified (Q-Sepharose, Superdex and Superose 6 size exclusion, ammonium sulphate)
Regarding B4, the “EC50 of suppression of ADH” value in data set [2] is 500 nM. For the same molecule, the “EC50 of suppression of luciferase” value in data set [4] was determined as 1100 nM. Moreover, the binding result in data set [6] is “binds”.

B5: αB-crystallin S59A (natural protein, human, UniProt P02511 1-175, looked up)
chain: MDIAIHHPWIRRPFFPFHSPSRLFDQFFGEHLLESDLFPTSTSLSPFYLRPPSFLRAPAWFDTGLSEMRLEKDRFSVNLDVKHFSPEELKVKVLGDVIEVHGKHEERQDEHGFISREFHRKYRIPADVDPLTITSSLSSDGVLTVNGPRKQVSGPERTIPITREEKPAVTAAPKK
notes: αB-crystallin, human, with the substitution S59A; Made by site-directed mutagenesis; called the control mutant; also called αB-S59A; source: E. coli BL21(DE3)pLysS, purified (Q-Sepharose, Superdex and Superose 6 size exclusion, ammonium sulphate)
As to B5, in data set [2], the “EC50 of suppression of ADH” value worked out at 1400 nM. Moreover, the “protection against DTT-induced lysozyme” value in data set [3] was 84%. For the same molecule, the “EC50 of suppression of luciferase” value in data set [4] is 13700 nM. Further, in data set [1], the “other: average oligomeric mass” value is reported as “stronger; reference 579”. In data set [6], the binding result was “binds”.
